Results reported in PMC8889352.

Biological target: IL-12 receptor

Chain of 18/12/TxM triple-cytokine fusion protein (Q13261 whole entry, looked up, the tested form may be a part): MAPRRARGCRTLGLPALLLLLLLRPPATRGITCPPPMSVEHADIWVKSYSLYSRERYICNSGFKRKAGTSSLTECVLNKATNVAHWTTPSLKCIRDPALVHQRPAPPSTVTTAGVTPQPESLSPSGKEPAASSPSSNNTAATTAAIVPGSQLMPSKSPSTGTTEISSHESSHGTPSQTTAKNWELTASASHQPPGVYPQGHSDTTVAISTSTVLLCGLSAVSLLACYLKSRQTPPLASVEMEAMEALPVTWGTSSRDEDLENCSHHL
Chain of 18/12/TxM triple-cytokine fusion protein (P29459 whole entry, looked up, the tested form may be a part): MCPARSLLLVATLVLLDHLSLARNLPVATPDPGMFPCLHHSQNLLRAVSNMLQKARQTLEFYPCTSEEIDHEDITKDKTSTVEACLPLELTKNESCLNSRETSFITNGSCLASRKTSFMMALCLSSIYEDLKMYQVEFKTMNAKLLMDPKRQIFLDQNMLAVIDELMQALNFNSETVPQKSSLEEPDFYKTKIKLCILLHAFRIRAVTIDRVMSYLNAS
Chain of 18/12/TxM triple-cytokine fusion protein (P29460 whole entry, looked up, the tested form may be a part): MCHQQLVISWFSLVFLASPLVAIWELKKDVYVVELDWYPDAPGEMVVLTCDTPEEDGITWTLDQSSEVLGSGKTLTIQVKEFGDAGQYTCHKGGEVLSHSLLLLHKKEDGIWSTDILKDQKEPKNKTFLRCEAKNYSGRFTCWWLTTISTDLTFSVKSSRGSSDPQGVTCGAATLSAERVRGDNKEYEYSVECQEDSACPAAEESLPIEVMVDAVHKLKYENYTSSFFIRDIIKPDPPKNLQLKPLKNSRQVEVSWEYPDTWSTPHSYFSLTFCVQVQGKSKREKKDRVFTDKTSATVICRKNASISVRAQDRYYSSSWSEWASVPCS
Chain of 18/12/TxM triple-cytokine fusion protein (Q14116 whole entry, looked up, the tested form may be a part): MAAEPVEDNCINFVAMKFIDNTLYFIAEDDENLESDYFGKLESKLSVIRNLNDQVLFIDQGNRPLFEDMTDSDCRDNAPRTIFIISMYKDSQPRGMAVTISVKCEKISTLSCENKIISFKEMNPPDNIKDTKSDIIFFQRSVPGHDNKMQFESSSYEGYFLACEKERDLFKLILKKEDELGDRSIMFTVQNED

18/12/TxM triple-cytokine fusion protein (from UniProt Q14116 37-193; P29460 23-328; P29459 23-219; Q13261 31-95) (complex)
activation of IL-12 reporter HEK-Blue (HEK12) cells (STAT4-inducible SEAP), EC50: 0.0991 nM
